Values of other authors in paper PMC12411175.

Molecular target: insulin receptor (Homo sapiens) (UniProt P06213)
Sequence of UniProt P06213 (P06213 763-1382): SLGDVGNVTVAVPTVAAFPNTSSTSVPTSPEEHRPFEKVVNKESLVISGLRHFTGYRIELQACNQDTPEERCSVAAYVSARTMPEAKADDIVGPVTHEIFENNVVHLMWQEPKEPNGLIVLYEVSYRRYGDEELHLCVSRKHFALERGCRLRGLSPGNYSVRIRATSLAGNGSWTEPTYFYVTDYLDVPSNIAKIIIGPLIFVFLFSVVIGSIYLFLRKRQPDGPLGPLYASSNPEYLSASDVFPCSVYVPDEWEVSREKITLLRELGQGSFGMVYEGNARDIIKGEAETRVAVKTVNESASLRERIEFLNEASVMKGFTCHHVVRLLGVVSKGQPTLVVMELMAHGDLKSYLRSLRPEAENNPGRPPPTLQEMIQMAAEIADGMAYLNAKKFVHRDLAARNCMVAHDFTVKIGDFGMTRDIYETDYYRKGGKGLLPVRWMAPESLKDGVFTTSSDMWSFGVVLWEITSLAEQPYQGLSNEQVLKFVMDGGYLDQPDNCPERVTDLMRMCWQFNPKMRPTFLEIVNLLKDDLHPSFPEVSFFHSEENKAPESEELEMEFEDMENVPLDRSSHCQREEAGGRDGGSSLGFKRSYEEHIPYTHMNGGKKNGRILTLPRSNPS

Sequence of insulin (P01308 90-110): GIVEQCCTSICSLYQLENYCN

Kd: 0.02 nM
Substance: insulin (from UniProt P01308)
